Measured values taken from US20210032365A1 (Chugai, published 2021).

T1: Serum-derived human C1s (human, UniProt P09871 16-688)
T1 construct: The analyte was C1s purified from serum; also called hC1s
T1 sequence: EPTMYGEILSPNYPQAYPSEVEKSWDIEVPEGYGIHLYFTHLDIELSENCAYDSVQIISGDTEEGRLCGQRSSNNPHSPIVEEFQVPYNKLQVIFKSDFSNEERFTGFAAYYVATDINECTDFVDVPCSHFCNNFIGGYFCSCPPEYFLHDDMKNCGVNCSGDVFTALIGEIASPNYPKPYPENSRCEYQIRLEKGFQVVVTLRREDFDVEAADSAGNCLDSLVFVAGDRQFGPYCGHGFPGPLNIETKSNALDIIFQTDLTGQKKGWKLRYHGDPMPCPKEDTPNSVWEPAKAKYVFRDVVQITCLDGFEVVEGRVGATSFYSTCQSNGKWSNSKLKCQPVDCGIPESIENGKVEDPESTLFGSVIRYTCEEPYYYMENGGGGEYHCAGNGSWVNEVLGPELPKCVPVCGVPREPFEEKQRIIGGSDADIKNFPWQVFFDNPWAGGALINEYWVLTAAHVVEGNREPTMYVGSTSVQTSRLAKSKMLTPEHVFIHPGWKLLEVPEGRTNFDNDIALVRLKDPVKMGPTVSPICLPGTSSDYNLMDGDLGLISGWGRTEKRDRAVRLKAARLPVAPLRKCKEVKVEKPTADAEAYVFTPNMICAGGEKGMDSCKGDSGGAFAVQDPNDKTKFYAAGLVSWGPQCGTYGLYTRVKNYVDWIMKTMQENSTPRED

T2: human C1s (human, UniProt P09871 16-688)
T2 construct: Analyte in the Biacore assays; also called hC1s; serum-derived human C1s (CompTech)
T2 sequence: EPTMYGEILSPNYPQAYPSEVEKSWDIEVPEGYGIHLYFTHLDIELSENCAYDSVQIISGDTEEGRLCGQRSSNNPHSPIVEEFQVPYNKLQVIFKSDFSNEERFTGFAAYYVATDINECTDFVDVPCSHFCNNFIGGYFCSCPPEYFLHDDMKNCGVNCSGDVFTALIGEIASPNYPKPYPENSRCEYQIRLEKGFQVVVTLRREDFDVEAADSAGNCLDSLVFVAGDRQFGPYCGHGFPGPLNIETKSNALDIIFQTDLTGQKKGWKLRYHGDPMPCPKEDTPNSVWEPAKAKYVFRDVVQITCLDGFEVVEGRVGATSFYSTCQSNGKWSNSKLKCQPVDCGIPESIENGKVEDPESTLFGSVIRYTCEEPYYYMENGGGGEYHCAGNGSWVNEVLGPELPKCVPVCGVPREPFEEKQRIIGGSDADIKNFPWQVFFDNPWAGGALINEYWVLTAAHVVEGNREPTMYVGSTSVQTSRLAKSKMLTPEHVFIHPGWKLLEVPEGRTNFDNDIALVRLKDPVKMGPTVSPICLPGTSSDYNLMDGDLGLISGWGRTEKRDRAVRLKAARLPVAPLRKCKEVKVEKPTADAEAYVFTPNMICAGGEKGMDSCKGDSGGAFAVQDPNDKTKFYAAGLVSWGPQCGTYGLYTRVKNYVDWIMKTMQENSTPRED


What was measured:
[1] = target: T1, Serum-derived human C1s; experiment: SPR Biacore T200, 37 C, ratio of KD pH 5.8 / pH 7.4, 1.2 mM CaCl2
Experimental: (§1) The binding affinity of all histidine-substituted variants at pH 7.4 and pH 5.8 were determined at 37 degrees C. using Biacore T200 instrument (GE Healthcare). Recombinant Protein A/G (Pierce) was immobilized onto all flow cells of a CM4 sensor chip using amine coupling kit (GE Healthcare). Antibodies and analytes were prepared in 7(+) buffer (20 mM ACES, 150 mM NaCl, 1.2 mM CaCl2, 0.05% Tween 20, 0.005% NaN3, pH 7.4) or 5(+) buffer (20 mM ACES, 150 mM NaCl, 1.2 mM CaCl2), 0.05% Tween 20, 0.005% NaN3, pH 5.8). Each antibody was captured onto the sensor surface by protein A/G. Antibody capture levels were aimed at 200 resonance unit (RU). […] Sensor surface was regenerated each cycle with 10 mM Glycine-HCl pH 1.5. […] An additional dissociation phase at pH 5.8 was integrated immediately after the dissociation phase at pH 7.4. This dissociation rate in 5(+) buffer was determined by processing and fitting data using Scrubber 2.0 (BioLogic Software) curve fitting software. […]

[2] = target: T1, Serum-derived human C1s; experiment: SPR Biacore T200, 37 C, ratio of dissociation rates pH 5.8 / pH 7.4, 1.2 mM CaCl2
Experimental: (§2) The binding affinity of all histidine-substituted variants at pH 7.4 and pH 5.8 were determined at 37 degrees C. using Biacore T200 instrument (GE Healthcare). Recombinant Protein A/G (Pierce) was immobilized onto all flow cells of a CM4 sensor chip using amine coupling kit (GE Healthcare). Antibodies and analytes were prepared in 7(+) buffer (20 mM ACES, 150 mM NaCl, 1.2 mM CaCl2, 0.05% Tween 20, 0.005% NaN3, pH 7.4) or 5(+) buffer (20 mM ACES, 150 mM NaCl, 1.2 mM CaCl2), 0.05% Tween 20, 0.005% NaN3, pH 5.8). Each antibody was captured onto the sensor surface by protein A/G. Antibody capture levels were aimed at 200 resonance unit (RU). […] Sensor surface was regenerated each cycle with 10 mM Glycine-HCl pH 1.5. […] An additional dissociation phase at pH 5.8 was integrated immediately after the dissociation phase at pH 7.4. This dissociation rate in 5(+) buffer was determined by processing and fitting data using Scrubber 2.0 (BioLogic Software) curve fitting software.

[3] = target: T1, Serum-derived human C1s; experiment: SPR Biacore T200, 37 C, antibody captured on protein A/G, pH 7.4, 1.2 mM CaCl2
Experimental: as §2

[4] = target: T1, Serum-derived human C1s; experiment: SPR Biacore T200, 37 C, antibody captured on protein A/G, pH 5.8, 1.2 mM CaCl2
Experimental: as §2

[5] = target: T2, human C1s; experiment: SPR (Biacore T200, 37C), Ab captured on protein A/G, serum C1s 12.5 and 50 nM; pH 7.4, 1.2 mM Ca
Experimental: as §2

[6] = target: T2, human C1s; experiment: SPR; koff (5.8+ of 775+): extra dissociation phase at pH 5.8 (1.2 mM Ca) right after the pH 7.4 dissociation, Scrubber fit
Experimental: as §2

[7] = target: T2, human C1s; experiment: SPR; KD at pH 5.8 over KD at pH 7.4, both 1.2 mM Ca
Experimental: as §1

Binder | KD (5.8+)/KD (7.4+) [1] | koff (5.8+ of 775+)/koff (7.4+) [2] | kon [3] [M⁻¹ s⁻¹] | koff [4] [s⁻¹] | kon [4] [M⁻¹ s⁻¹] | koff [5] [s⁻¹] | koff [6] [s⁻¹] | KD (5.8+)/KD (7.4+) [7]
IPN92H0288/IPN93L0058-SG136 (antibody, human IgG1, kappa) heavy: EVMLVESGGGLVKPGGSLRLSCAASGFTFSNYAMSWVRQAPGKGLEWVATISSGGSHTYELDSVDGRFTISRDNSKDTLYLQMNSLRAEDTALYYCARLFTKHAMDYWGQGTLVTVSSASTKGPSVFPLAPSSKSTSGGTAALGCLVKDYFPEPVTVSWNSGALTSGVHTFPAVLQSSGLYSLSSVVTVPSSSLGTQTYICNVNHKPSNTKVDKKVEPKSCDKTHTCPPCPAPELRRGPSVFLFPPKPKDTLMISRTPEVTCVVVDVSHEDPEVKFNWYVDGVEVHNAKTKPREEQYNSTYRVVSVLTVLHQDWLNGKEYKCKVSNKGLPSSIEKTISKAKGQPREPQVYTLPPSREEMTKNQVSLTCLVKGFYPSDIAVEWESNGQPENNYKTTPPVLDSDGSFFLYSKLTVDKSRWQQGNVFSCSVMHEALHNHYTQKSLSLSP light: QIVLTQSPATLSLSPGERATLSCTASSEVSSSYLHWYQQKPGKAPKLWIYSTSNLASGVPSRFSGSGSGTDYTLTISSLQPEDFATYYCHQYYRLHPITFGQGTKLEIKRTVAAPSVFIFPPSDEQLKSGTASVVCLLNNFYPREAKVQWKVDNALQSGNSQESVTEQDSKDCTYSLSSTLTLSKADYEKHKVYACEVTHQGLSSPVTKSFNRGEC | 65.6 | 38.8 | 666000 | 0.0127 | 315000 |  |  | 
IPN92H0288/IPN93L0211-SG136 (antibody, human IgG1, kappa) heavy: EVMLVESGGGLVKPGGSLRLSCAASGFTFSNYAMSWVRQAPGKGLEWVATISSGGSHTYELDSVDGRFTISRDNSKDTLYLQMNSLRAEDTALYYCARLFTKHAMDYWGQGTLVTVSSASTKGPSVFPLAPSSKSTSGGTAALGCLVKDYFPEPVTVSWNSGALTSGVHTFPAVLQSSGLYSLSSVVTVPSSSLGTQTYICNVNHKPSNTKVDKKVEPKSCDKTHTCPPCPAPELRRGPSVFLFPPKPKDTLMISRTPEVTCVVVDVSHEDPEVKFNWYVDGVEVHNAKTKPREEQYNSTYRVVSVLTVLHQDWLNGKEYKCKVSNKGLPSSIEKTISKAKGQPREPQVYTLPPSREEMTKNQVSLTCLVKGFYPSDIAVEWESNGQPENNYKTTPPVLDSDGSFFLYSKLTVDKSRWQQGNVFSCSVMHEALHNHYTQKSLSLSP light: QIVLTQSPATLSLSPGERATLSCTASSEVSESYLHWYQQKPGKAPKLWIYSTSNLASGVPSRFSGSGSGTDYTLTISSLQPEDFATYYCHQYYRLHPITFGQGTKLEIKRTVAAPSVFIFPPSDEQLKSGTASVVCLLNNFYPREAKVQWKVDNALQSGNSQESVTEQDSKDCTYSLSSTLTLSKADYEKHKVYACEVTHQGLSSPVTKSFNRGEC | 74.9 | 54.2 | 469000 | 0.0194 | 233000 |  |  | 
IPN92H0307/IPN93L0058-SG136 (antibody, human IgG1, kappa) heavy: EVMLVESGGGLVKPGGSLRLSCAASGFEFENYAMSWVRQAPGKGLEWVATISSGGSHTYELDSVDGRFTISRDNSKDTLYLQMNSLRAEDTALYYCARLFTKHAMDYWGQGTLVTVSSASTKGPSVFPLAPSSKSTSGGTAALGCLVKDYFPEPVTVSWNSGALTSGVHTFPAVLQSSGLYSLSSVVTVPSSSLGTQTYICNVNHKPSNTKVDKKVEPKSCDKTHTCPPCPAPELRRGPSVFLFPPKPKDTLMISRTPEVTCVVVDVSHEDPEVKFNWYVDGVEVHNAKTKPREEQYNSTYRVVSVLTVLHQDWLNGKEYKCKVSNKGLPSSIEKTISKAKGQPREPQVYTLPPSREEMTKNQVSLTCLVKGFYPSDIAVEWESNGQPENNYKTTPPVLDSDGSFFLYSKLTVDKSRWQQGNVFSCSVMHEALHNHYTQKSLSLSP light: QIVLTQSPATLSLSPGERATLSCTASSEVSSSYLHWYQQKPGKAPKLWIYSTSNLASGVPSRFSGSGSGTDYTLTISSLQPEDFATYYCHQYYRLHPITFGQGTKLEIKRTVAAPSVFIFPPSDEQLKSGTASVVCLLNNFYPREAKVQWKVDNALQSGNSQESVTEQDSKDCTYSLSSTLTLSKADYEKHKVYACEVTHQGLSSPVTKSFNRGEC | 28.4 | 28.8 | 391000 | 0.0121 | 318000 |  |  | 
IPN009VH2/IPN009VK3-SG136 (antibody, human IgG1, kappa, also called IPN009VH2/IPN009VK3 (lot PPU2040)) heavy: EVMLVESGGGLVKPGGSLRLSCAASGFTFSNYAMSWVRQAPGKGLEWVATISSGGSHTYYLDSVKGRFTISRDNSKDTLYLQMNSLRAEDTALYYCARLFTGYAMDYWGQGTLVTVSSASTKGPSVFPLAPSSKSTSGGTAALGCLVKDYFPEPVTVSWNSGALTSGVHTFPAVLQSSGLYSLSSVVTVPSSSLGTQTYICNVNHKPSNTKVDKKVEPKSCDKTHTCPPCPAPELRRGPSVFLFPPKPKDTLMISRTPEVTCVVVDVSHEDPEVKFNWYVDGVEVHNAKTKPREEQYNSTYRVVSVLTVLHQDWLNGKEYKCKVSNKGLPSSIEKTISKAKGQPREPQVYTLPPSREEMTKNQVSLTCLVKGFYPSDIAVEWESNGQPENNYKTTPPVLDSDGSFFLYSKLTVDKSRWQQGNVFSCSVMHEALHNHYTQKSLSLSP light: QIVLTQSPATLSLSPGERATLSCTASSSVSSSYLHWYQQKPGKAPKLWIYSTSNLASGVPSRFSGSGSGTDYTLTISSLQPEDFATYYCHQYYRLPPITFGQGTKLEIKRTVAAPSVFIFPPSDEQLKSGTASVVCLLNNFYPREAKVQWKVDNALQSGNSQESVTEQDSKDCTYSLSSTLTLSKADYEKHKVYACEVTHQGLSSPVTKSFNRGEC |  |  |  |  |  | 0.000411 | 8.86e-05 | 0.4
IPN009VH2/IPN93L0021-SG136 (antibody, human IgG1, kappa, name in Kabat numbering, also called IPN009VH2/IPN93L0021 (lot PPU2042)) heavy: EVMLVESGGGLVKPGGSLRLSCAASGFTFSNYAMSWVRQAPGKGLEWVATISSGGSHTYYLDSVKGRFTISRDNSKDTLYLQMNSLRAEDTALYYCARLFTGYAMDYWGQGTLVTVSSASTKGPSVFPLAPSSKSTSGGTAALGCLVKDYFPEPVTVSWNSGALTSGVHTFPAVLQSSGLYSLSSVVTVPSSSLGTQTYICNVNHKPSNTKVDKKVEPKSCDKTHTCPPCPAPELRRGPSVFLFPPKPKDTLMISRTPEVTCVVVDVSHEDPEVKFNWYVDGVEVHNAKTKPREEQYNSTYRVVSVLTVLHQDWLNGKEYKCKVSNKGLPSSIEKTISKAKGQPREPQVYTLPPSREEMTKNQVSLTCLVKGFYPSDIAVEWESNGQPENNYKTTPPVLDSDGSFFLYSKLTVDKSRWQQGNVFSCSVMHEALHNHYTQKSLSLSP light: QIVLTQSPATLSLSPGERATLSCTASSSVSSSYLHWYQQKPGKAPKLWIYSTSNLASGVPSRFSGSGSGTDYTLTISSLQPEDFATYYCHQYHRLPPITFGQGTKLEIKRTVAAPSVFIFPPSDEQLKSGTASVVCLLNNFYPREAKVQWKVDNALQSGNSQESVTEQDSKDCTYSLSSTLTLSKADYEKHKVYACEVTHQGLSSPVTKSFNRGEC |  |  |  |  |  | 0.00058 | 0.0011 | 1.5
